The values that follow come from patent US20050215470A1 (Amgen, published 2005).

Assay [1] addresses T1, human bradykinin B1 receptor (human, UniProt P46663 1-353).
T1 sequence (looked up): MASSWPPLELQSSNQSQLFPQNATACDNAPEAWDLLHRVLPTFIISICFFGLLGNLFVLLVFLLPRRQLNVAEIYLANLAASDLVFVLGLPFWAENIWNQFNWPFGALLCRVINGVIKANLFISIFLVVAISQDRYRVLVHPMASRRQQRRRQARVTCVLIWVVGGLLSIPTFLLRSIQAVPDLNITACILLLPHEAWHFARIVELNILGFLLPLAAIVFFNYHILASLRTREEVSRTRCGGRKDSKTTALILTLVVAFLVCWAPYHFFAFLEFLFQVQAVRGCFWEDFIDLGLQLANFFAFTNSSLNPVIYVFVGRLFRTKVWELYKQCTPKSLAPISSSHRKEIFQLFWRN
Kind of assay: cell-based or functional assay.

Assay [2] deals with T2, human bradykinin B2 receptor (human, UniProt P30411 1-391).
T2 sequence (looked up): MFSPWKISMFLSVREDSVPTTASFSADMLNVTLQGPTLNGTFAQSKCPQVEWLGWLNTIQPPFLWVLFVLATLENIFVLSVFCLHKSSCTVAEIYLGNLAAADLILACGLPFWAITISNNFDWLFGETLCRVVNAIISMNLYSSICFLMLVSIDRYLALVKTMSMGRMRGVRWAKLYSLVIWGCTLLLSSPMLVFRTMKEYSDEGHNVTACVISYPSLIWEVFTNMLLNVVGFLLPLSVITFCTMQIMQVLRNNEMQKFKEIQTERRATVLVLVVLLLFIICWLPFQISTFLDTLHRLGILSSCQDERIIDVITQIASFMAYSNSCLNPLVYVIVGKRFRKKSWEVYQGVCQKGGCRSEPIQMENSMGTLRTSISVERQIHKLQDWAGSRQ
Kind of assay: cell-based or functional assay.

Assay [3] addresses T1, human bradykinin B1 receptor. Kind of assay: cell-based or functional assay. This is another data set of the same source.
Assay [4] has the same target. Kind of assay: binding affinity (Ki) at the human B1 receptor; assay format not described.

The Ki is the dissociation constant of the complex between target and ligand, obtained from inhibition or displacement. Read a low Ki as a stronger hold on the target.

Non-standard residues stand in square brackets, D forms with d. No end group written: not given here. Gly(cPent) = N[C@H](C(=O)O)C1CCCC1; Hyp = O=C(O)[C@@H]1C[C@@H](O)CN1; dTic = O=C(O)[C@H]1Cc2ccccc2CN1 Where only a bound is given, the exact number is not on record here.

As for KKRP[Hyp]G[Gly(cPent)]S[dTic][Gly(cPent)] (also: conjugated to PEG, size, linker and site not given here) [the same peptide (SEQ ID NO:36) conjugated to PEG], in assay [1], the “fold increase in IC50 in the hB1 aequorin assay against the unconjugated peptide” value is around 10 fold. Also, in assay [2], the “antagonist activity in the hB2 FLIPR assay” value (shortened to “antagonist activity”) is above 10 µM.

Consider KKRP[Hyp]G[Gly(cPent)]S[dTic][Gly(cPent)] [SEQ ID NO:36], for which the “IC50 in the hB1 aequorin assay” value in assay [1] was found to be 3 nM. Further, in assay [2], the “antagonist activity” value is above 10 µM.

Take Ac-KKRP[Hyp]G[Gly(cPent)]S[dTic][Gly(cPent)] [SEQ ID NO: 37]: the “antagonist activity” value in assay [2] is above 10 µM. In addition, the hB1 IC50 (nM), functional potency in assay [3] worked out at 1 nM. Moreover, the Ki in assay [4] is 0.8 nM.
